Molecular target: T1, full length FH (Homo sapiens, UniProt P08603)
T1 construct: Purification of Full-Length Factor H from Human Serum; from tissue; host or cells: human serum
Experiment: Binding of full length FH to untreated and N-glycosidase F-treated FMOD
Details: p<10-4 for all data points above zero
Method: FMOD was isolated from bovine articular cartilage (Heinghrd et al., (1986) J. Biol. Chem. 261, 13866-13872) and recombinant CRP was obtained from Calbiochem. Deglycosylated FMOD was prepared by treatment with N-glycosiadase F (Roche Applied Science) as previously described (Sjöberg et al. (2005) J. Biol. Chem. 280, 32301-32308).
CRP or FMOD was coated overnight at 4° C. onto microtiter plates (Maxisorp, Nunc) at a concentration of 10 μg/ml in 75 mM sodium carbonate buffer, pH 9.6. Wells treated only with coating buffer or 1% (w/v) BSA (Sigma) in coating buffer (for the assays involving FMOD) were used as negative controls. Between each step the wells were washed extensively with 50 mM Tris-HCl, 150 mM NaCl, 0.1% (v/v) Tween 20, pH 7.5. All wells were blocked with 1% (w/v) BSA (Sigma) in phosphate buffered saline (Invitrogen) for 1 hour at 37° C. […] The amount of bound protein was assessed using a goat polyclonal anti-FH antibody (Quidel, Cat # A312) followed by HRP-labeled anti-goat secondary antibodies (Dako) and the OPD development kit (Dako). Detection of biotinylated protein was performed using a StreptABComplex/HRP-kit from Dako, and in both cases the absorbance at 490 nm was measured to quantify protein binding.

T1 sequence (P08603 19-1231): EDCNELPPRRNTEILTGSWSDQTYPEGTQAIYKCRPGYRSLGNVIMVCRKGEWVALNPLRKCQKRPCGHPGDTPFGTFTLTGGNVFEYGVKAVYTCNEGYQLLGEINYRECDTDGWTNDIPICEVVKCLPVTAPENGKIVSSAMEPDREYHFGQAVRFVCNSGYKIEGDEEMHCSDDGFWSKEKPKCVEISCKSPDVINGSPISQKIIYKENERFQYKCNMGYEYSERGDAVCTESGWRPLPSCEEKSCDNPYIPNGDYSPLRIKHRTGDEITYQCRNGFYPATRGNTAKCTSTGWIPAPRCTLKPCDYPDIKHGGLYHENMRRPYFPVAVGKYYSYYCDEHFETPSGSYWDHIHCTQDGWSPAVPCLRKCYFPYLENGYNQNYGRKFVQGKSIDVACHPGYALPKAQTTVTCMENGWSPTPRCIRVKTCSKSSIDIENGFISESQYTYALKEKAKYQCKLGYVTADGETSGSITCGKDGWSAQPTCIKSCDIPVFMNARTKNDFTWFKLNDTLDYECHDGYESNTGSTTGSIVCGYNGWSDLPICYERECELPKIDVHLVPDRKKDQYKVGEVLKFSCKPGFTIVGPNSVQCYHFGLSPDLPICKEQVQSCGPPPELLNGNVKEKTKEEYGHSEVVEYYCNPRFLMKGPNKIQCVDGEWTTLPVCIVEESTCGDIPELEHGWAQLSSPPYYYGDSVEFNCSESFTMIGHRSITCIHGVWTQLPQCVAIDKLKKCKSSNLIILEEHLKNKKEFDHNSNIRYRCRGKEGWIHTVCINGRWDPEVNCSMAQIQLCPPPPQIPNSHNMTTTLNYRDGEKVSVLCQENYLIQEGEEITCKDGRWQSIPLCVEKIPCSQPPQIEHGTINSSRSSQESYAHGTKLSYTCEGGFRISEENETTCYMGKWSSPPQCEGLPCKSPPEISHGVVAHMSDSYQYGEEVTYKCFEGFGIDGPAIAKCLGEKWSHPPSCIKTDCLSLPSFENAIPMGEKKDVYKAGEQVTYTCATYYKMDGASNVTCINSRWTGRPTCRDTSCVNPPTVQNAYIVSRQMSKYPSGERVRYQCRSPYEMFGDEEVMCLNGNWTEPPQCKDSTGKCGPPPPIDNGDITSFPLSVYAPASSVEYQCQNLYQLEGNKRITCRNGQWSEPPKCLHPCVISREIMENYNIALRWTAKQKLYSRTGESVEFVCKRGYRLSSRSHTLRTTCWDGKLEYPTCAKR

B1: deglycosylated FMOD: fibromodulin from bovine articular cartilage treated with N-glycosidase F to remove N-linked oligosaccharides including keratan sulphate (protein)
chain: QYEEDSHWWFQFLRNQQSTYDDPYDPYPYEPYEPYPYGGEEGPAYAYGSPPQPEPRDCPQECDCPPNFPTAMYCDNRNLKYLPFVPSRMKYVYFQNNQISSIQEGVFDNATGLLWIALHGNQITSDKVGKKVFSKLRHLERLYLDHNNLTRIPSPLPRSLRELHLDHNQISRVPNNALEGLENLTALYLHHNEIQEVGSSMKGLRSLILLDLSYNHLRKVPDGLPSALEQLYLEHNNVFSVPDSYFRGSPKLLYVRLSHNSLTNNGLASNTFNSSSLLELDLSYNQLQKIPPVSTNLENLYLQGNRINEFSISSFCTVVDVMNFSKLQVLRLDGNEIKRSAMPADAPLCLRLASLIEI
- binding of FH compared to keratan sulphate-containing FMOD: significantly better

From US7829301B2, “Screening assays for binding antagonists of the AMD-associated variant of factor H (H384)” (The University of Manchester, priority 2006, dated 2010)
